Data set [1] concerns the target alpha-bungarotoxin (α-Bgt) (Bungarus multicinctus (Taiwan banded …, UniProt P60615 22-95)). Description: fluorescence quenching titration; 10 mM Tris-HCl pH 7.5, 1 mM EDTA, 100 mM NaCl; temperature not stated; […]. To be noted: protein: native; tags: none; label: 5'-FAM.
Data set [2] concerns the target T1, cardiotoxin 3 (CTX3) (Naja atra (Taiwan cobra), UniProt P60301 22-81).
T1 sequence: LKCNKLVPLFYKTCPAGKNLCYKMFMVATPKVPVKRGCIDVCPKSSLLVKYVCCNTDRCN
The experiment in a line: fluorescence quenching titration; 10 mM Tris-HCl pH 7.5, 1 mM EDTA, 100 mM NaCl; temperature not stated; fluorescence with 4 nM aptamer (ex 480/em 520 nm); EMSA with 5 uM aptamer, 20 min, 2% agarose, TAE. As to conditions: protein: native, tags: none, label: 5'-FAM. Background: Mobility shift assays separate free from complexed probe on a gel.

In data set [3] the target is T2, cardiotoxin 5 (CTX5) (Naja atra (Taiwan cobra), UniProt Q98961 22-81).
T2 sequence: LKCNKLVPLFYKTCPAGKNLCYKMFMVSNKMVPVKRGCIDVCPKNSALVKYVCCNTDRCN
Description: fluorescence quenching titration; 10 mM Tris-HCl pH 7.5, 1 mM EDTA, 100 mM NaCl; temperature not stated; […]. To be noted: protein: native; tags: none; label: 5'-FAM.

Data set [4] deals with T3, cardiotoxin-like protein (CLBP) (Naja atra (Taiwan cobra), UniProt P62375 22-83).
T3 sequence: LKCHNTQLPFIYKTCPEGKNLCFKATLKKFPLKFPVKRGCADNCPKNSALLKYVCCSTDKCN
The description is as above. As to conditions: protein: native; tags: none; label: 5'-FAM.

Data set [5] concerns the target T4, cardiotoxin N (CTXN) (Naja atra (Taiwan cobra), UniProt P80245 22-81).
T4 sequence: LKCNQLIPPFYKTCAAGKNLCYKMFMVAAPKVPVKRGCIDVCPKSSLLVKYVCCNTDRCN
The description is as above. As to conditions: protein: native; tags: none; label: 5'-FAM.

Data set [6] concerns the target T5, cardiotoxin 4 (CTX4) (Naja atra (Taiwan cobra), UniProt P01443 22-81).
T5 sequence: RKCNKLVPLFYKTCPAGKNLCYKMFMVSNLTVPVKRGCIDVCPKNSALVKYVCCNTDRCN
The experiment in a line: fluorescence quenching titration; 10 mM Tris-HCl pH 7.5, 1 mM EDTA, 100 mM NaCl; temperature not stated; fluorescence with 4 nM aptamer (ex 480/em 520 nm); EMSA with 5 uM aptamer, 20 min, 2% agarose, TAE. To be noted: protein: native; tags: none; label: 5'-FAM.

The target of data set [7] is T6, cardiotoxin 1 (CTX1) (Naja atra (Taiwan cobra), UniProt P60304 22-81).
T6 sequence: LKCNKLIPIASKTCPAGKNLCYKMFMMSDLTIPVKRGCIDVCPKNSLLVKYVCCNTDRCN
Described as above. To be noted: protein: native; tags: none; label: 5'-FAM.

The target in data set [8] is T7, cardiotoxin 2 (CTX2) (Naja atra (Taiwan cobra), UniProt P01442 22-81).
T7 sequence: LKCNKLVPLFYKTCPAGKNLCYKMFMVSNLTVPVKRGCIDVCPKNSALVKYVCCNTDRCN
The description is as above. To be noted: protein: native; tags: none; label: 5'-FAM.

Chain of alpha-bungarotoxin (α-Bgt) (Bungarus multicinctus (P60615 22-95): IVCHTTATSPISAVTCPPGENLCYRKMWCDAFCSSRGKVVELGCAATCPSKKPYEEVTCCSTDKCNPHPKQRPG

As to AGGGCACAGAGAAGAAGTCGTGGATTTGAATGGTTTTGGT (ssDNA) [FAM-bgt2], the dissociation constant (Kd) (in general, the concentration at which binding is half-saturated) in data set [1] came to 0.46 µM; in data set [2], 0.26 µM.
Take GCGAGGTGTTCGAGAGTTAGGGCGACATGACCAAACGTT (ssDNA) [FAM-bgt1]: the dissociation constant (Kd) came out at 17.2 µM in data set [3]; 7.19 µM in data set [4]; 2.21 µM in data set [1]; 8.85 µM in data set [5]; 8.13 µM in data set [6]; 2.51 µM in data set [7]. Moreover, the Kd in data set [2] came out at 2.25 µM; in data set [8], 6.29 µM.
Turning to GCGAGGTGTTCGAGAGTTAGGGCGACATGACCAAACGTT (ssDNA) [FAM-bgt1-DABCYL], the Kd in data set [2] (3'-DABCYL) was 2.35 µM.
Regarding ATCATGTCTTTTCGGGATGGGCAAGAAGGGAAATAATGC (ssDNA) [FAM-bgt3], the equilibrium dissociation constant (Kd) in data set [1] is 0.14 µM; in data set [2] it was 1.26 µM.
In the case of AGAAACGTAGCGGTAACTGCTAGAATGCGCCGAGAGAGCG (ssDNA) [FAM-bgt4], the Kd was found to be 0.28 µM in data set [1] and 1.17 µM in data set [2].

The values are drawn from paper PMC4810211, “DNA Aptamers against Taiwan Banded Krait α-Bungarotoxin Recognize Taiwan Cobra Cardiotoxins”.
